This data set can be described thus: Determination of structural forms by Superdex G-75 column elution. The data set is classed as physicochemical. As to conditions: for Peak profile / Retention Time: Superdex G-75 column (HR 10/30), phosphate buffered saline pH 7.4, flow rate 0.4 ml/min, sample 1.2 mg/ml; for Structural form (monomeric or polymeric): concluded from retention time and peak profile versus positive control [B28Lys, B29Pro] human insulin. The protocol:
[…] A preparation of each analogue is passed through Superdex G-75 column (HR 10/30). HI and [B28Lys, B29Pro] insulin (Lispro) are used as negative and positive controls respectively. Phosphate buffered saline pH 7.4 is used as an elution buffer and the flow rate fixed at 0.4 ml/min. The concentration of the sample preparation is 1.2 mg/ml.

“Hl: human insulin, used as negative control [reference compound]”: the Peak profile entry is on record as “Unsymmetrical” and the “Retention Time” value turned out to be 36.4 min.

On to “[B12Thr]Hl: insulin analogue in which the 12th amino acid of the B-chain of human insulin (Val) is substituted by Thr”, for which the Peak profile entry is “Symmetrical”, the “Retention Time” value turned out to be 39.4 min and the “Structural form (monomeric or polymeric)” value is “monomeric”.

As to “[B16Ala]Hl: human insulin analogue with replacement of Tyr by Ala in position B16”, the Peak profile entry is recorded as “Symmetrical”, the “Retention Time” value worked out at 38.3 min and the “Structural form (monomeric or polymeric)” value was “monomeric”.

Take “[B26Ala]Hl: human insulin analogue with replacement of Tyr by Ala in position B26”: the Peak profile entry is “Symmetrical”, the “Retention Time” value was found to be 38.9 min and the “Structural form (monomeric or polymeric)” value is recorded as “monomeric”.

As to “[B28Lys, B29Pro]Hl: commercial monomeric insulin with inversion of amino acids 28 and 29 of the B chain of human insulin; positive control [reference compound]”, the Peak profile entry is “Symmetrical” and the “Retention Time” value was 39.4 min.

Values taken from patent publication US6800606B1, “Monomeric analogues of human insulin” (Shanghai Institute of Biochemistry, priority 1999, dated 2004).
